The target of assay [1] is integrin αvβ3 protein (UniProt P06756).
Assay [2] shares this target. Briefly: SPR; Biacore T-200; TLR2, TLR4 and integrin αvβ3 immobilised on a CM5 chip by amine coupling; CCN1 as analyte at 25 µl per min, 25 °C, phosphate buffer with 350 mM NaCl, 0.5 mM CaCl2, 0.5 mM MgCl2, 10 µg per ml BSA; global fit to 1:1 Langmuir model, KD = kd/ka.

Chain of integrin αvβ3 protein (P06756 31-1048, chain 1 of 2): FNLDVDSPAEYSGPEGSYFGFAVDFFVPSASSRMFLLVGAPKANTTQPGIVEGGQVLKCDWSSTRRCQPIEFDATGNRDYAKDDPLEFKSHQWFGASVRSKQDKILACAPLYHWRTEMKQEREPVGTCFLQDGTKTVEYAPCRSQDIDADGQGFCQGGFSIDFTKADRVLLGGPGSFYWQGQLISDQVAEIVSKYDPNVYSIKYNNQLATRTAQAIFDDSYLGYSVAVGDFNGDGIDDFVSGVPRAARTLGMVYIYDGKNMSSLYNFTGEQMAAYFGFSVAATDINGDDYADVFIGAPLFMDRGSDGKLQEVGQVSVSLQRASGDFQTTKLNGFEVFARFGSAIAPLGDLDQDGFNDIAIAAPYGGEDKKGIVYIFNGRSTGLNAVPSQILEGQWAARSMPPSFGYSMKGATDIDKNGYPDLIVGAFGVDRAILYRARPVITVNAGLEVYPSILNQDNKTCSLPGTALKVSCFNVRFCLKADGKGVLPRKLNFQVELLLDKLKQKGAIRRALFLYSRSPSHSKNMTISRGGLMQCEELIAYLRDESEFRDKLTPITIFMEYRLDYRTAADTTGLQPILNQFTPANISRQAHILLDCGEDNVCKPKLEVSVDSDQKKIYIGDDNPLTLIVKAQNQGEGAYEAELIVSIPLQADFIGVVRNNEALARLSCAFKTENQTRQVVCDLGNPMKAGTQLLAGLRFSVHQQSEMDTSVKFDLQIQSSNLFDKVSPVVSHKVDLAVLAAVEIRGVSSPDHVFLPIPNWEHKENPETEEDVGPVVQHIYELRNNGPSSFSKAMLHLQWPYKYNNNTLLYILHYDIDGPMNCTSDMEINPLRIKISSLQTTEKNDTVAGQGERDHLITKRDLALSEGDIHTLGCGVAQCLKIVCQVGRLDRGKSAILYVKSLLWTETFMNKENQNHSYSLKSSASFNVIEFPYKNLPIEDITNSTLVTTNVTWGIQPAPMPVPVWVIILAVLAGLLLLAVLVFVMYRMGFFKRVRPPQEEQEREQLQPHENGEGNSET
Chain of integrin αvβ3 protein (P05106 27-718, chain 2 of 2, further chain): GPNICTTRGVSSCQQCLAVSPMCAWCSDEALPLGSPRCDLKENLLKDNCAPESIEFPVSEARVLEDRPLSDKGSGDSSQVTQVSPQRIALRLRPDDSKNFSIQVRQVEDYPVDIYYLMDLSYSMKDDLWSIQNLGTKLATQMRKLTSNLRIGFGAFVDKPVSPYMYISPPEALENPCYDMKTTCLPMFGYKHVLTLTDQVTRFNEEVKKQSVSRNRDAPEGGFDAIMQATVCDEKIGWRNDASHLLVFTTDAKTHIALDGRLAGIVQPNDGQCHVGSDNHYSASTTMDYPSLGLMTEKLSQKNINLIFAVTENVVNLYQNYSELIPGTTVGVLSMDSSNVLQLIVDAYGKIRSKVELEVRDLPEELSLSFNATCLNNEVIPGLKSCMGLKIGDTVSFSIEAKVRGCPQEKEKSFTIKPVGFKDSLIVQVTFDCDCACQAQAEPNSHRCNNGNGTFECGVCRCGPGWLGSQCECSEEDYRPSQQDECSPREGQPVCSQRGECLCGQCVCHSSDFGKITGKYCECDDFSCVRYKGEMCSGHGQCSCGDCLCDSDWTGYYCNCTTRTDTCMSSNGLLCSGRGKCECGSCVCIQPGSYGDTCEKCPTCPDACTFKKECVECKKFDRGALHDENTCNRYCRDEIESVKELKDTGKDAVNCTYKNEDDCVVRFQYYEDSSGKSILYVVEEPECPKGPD

B1: CCN1-WT (recombinant matricellular protein CCN1) (natural protein)
chain: TCPAACHCPLEAPKCAPGVGLVRDGCGCCKVCAKQLNEDCSKTQPCDHTKGLECNFGASSTALKGICRAQSEGRPCEYNSRIYQNGESFQPNCKHQCTCIDGAVGCIPLCPQELSLPNLGCPNPRLVKVSGQCCEEWVCDEDSIKDSLDDQDDLLGLDASEVELTRNNELIAIGKGSSLKRLPVFGTEPRVLFNPLHAHGQKCIVQTTSWSQCSKSCGTGISTRVTNDNPECRLVKETRICEVRPCGQPVYSSLKKGKKCSKTKKSPEPVRFTYAGCSSVKKYRPKYCGSCVDGRCCTPLQTRTVKMRFRCEDGEMFSKNVMMIQSCKCNYNCPHPNEASFRLYSLFNDIHKFRD
For the molecule B1, the phagocytosis of S. aureus bioparticles by BMDMs pretreated with CCN1 (2 µg per ml); obliterated by cilengitide (1 µM); also enhanced in BM-PMNs and THP.1 macrophages with integrin αvβ3 protein [1] worked out at 5 fold. The molecule also had a dissociation constant Kd with integrin αvβ3 protein [2] of 202 nM.

These data come from article PMC7060279.
